Data taken from patent US20250223580.

Assays:
[1] = tested on: N-terminal HA-tagged Csx30 alanine mutants of individual regions of the Csx29-Csx30 interface
[2] = tested on: HA-Csx30 K551A/K553A
[3] = tested on: Csx30 from Desulfonema ishimotonii, full length
[4] = tested on: HA-Csx30 M527A
[5] = tested on: HA-Csx30 S526A/Q428A/R530A/Q531A
[6] = tested on: Csx30 fragment, residues 396-565
[7] = tested on: TwinStrep-SUMO-Csx30 1-544 (C-terminal truncation of Csx30)
Chain of TwinStrep-SUMO-Csx30 1-544 (C-terminal truncation of Csx30) (chain, as listed by the source): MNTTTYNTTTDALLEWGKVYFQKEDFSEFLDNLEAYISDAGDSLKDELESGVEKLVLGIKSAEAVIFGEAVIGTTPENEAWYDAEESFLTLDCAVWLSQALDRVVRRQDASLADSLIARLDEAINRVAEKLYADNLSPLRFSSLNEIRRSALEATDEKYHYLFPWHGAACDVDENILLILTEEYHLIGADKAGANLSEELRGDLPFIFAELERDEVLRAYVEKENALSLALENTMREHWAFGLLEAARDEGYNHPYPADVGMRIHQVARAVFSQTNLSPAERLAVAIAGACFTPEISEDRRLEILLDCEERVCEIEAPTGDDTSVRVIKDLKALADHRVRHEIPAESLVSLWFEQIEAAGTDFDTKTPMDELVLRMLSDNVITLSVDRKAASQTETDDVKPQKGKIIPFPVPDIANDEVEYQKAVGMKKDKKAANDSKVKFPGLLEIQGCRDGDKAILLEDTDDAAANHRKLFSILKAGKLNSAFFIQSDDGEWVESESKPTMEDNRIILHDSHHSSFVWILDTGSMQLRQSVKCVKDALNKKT

Chain of Csx30 from Desulfonema ishimotonii, full length (chain, as listed by the source): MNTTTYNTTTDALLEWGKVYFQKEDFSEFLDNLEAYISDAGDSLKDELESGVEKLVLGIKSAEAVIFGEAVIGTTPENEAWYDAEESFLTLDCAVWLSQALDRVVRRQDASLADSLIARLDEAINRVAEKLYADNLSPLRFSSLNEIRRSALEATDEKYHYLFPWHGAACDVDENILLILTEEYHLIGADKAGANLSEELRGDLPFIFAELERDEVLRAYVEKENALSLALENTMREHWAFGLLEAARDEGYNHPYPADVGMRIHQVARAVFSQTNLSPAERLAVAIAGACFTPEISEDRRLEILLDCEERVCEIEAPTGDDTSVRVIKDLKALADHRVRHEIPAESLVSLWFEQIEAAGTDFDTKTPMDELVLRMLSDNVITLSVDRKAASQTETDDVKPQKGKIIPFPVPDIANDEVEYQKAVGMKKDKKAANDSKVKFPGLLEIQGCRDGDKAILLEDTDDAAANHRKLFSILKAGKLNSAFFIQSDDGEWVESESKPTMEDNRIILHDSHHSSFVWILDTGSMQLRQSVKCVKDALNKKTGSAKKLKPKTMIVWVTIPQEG
Chain of Csx30 fragment, residues 396-565 (chain, as listed by the source): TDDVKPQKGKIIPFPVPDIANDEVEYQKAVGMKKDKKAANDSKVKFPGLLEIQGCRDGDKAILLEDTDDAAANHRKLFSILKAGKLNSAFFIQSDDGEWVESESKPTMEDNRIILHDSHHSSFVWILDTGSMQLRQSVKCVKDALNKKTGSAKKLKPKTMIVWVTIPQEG

Substance	in vitro cleavage of Csx30 alanine mutants (immunoblot) [1]	stated: cleaved (target-RNA-dependent cleavage of HA-Csx30, anti-HA immunoblot) [2]	cleavage of Csx30 in in vitro reactions (immunoblot, SDS-PAGE) [3]	cleavage of Up1 within the purified Up1-Up3 complex (SDS-PAGE, Coomassie) [3]	stated: cleaved (target-RNA-dependent cleavage of HA-Csx30, anti-HA immunoblot) [3]	stated: cleaved (target-RNA-dependent cleavage of HA-Csx30, anti-HA immunoblot) [4]	stated: cleaved (target-RNA-dependent cleavage of HA-Csx30, anti-HA immunoblot) [5]	molar excess of Csx30 substrate cleaved in vitro [3]	in vitro cleavage of truncated Csx30 (SDS-PAGE) [6]	in vitro cleavage of truncated Csx30 (SDS-PAGE) [7]
Cas7-11-Csx29-crRNA complex	mutating individual regions of the Csx29-Csx30 interface did not significantly affect Csx30 cleavage	K551A/K553A: without target RNA only the upper full-length band; with target RNA a product band just above the 50 kDa mark, and a weaker upper band remains	Csx30, is specifically cleaved in response to a target RNA	only in the lane with gRAMP-CHAT + and target RNA + do bands appear at about 50 kDa and just above 15 kDa, with a weaker Up1 band; the lanes without gRAMP-CHAT, or with gRAMP-CHAT and no target RNA, show only Up1 and Up3; the Up3 band is unchanged	Wildtype: without target RNA only the upper full-length band; with target RNA the upper band is weak and a strong product band stands just above the 50 kDa mark	M527A: without target RNA only the upper full-length band; with target RNA the upper band is faint and a product band stands just above the 50 kDa mark	S526A/Q428A/R530A/Q531A: without target RNA only the upper full-length band; with target RNA the upper band is faint and a product band stands just above the 50 kDa mark			
dCas7-11-Csx29-crRNA complex (Cas7-11 D429A/D654A)								cleaving 100-fold molar excess of Csx30 substrate in minutes	Csx30 fragments containing residues 396-565 were efficiently cleaved in vitro	even a twenty amino acid truncation (Csx301-544) abolished cleavage activity
